Results as given in patent US20230279085A1 (ABL BIO, published 2023).

How the values were obtained:
alpha-synuclein monomer = alpha-synuclein monomer (Homo sapiens, UniProt P37840 1-140); assay: SPR (BIAcore), antibody captured on Protein A, sample alpha-Syn monomer, 1:1 binding fit printed under a sensorgram that shows no binding (see non_binding)
Method: The quantitative analysis of the binding of alpha-synuclein antibody prepared in Example 1 to monomer and aggregate antigens was performed using BIAcore analysis.
(§1) The used instrument was T200 (GE Healthcare, S/N: 1565888). Protein A is used as a chip (GE Healthcare, Cat. 29-1275-56). 10 mM Glycine-HCl pH 1.5 (GE Healthcare, Cat. BR-1003-54) was regeneration buffer. The running buffer, analyte dilution, and the sample dilution buffer were HBS-EP. The α-syn antibodies (3A9, 9B11 and 11F11) prepared in Example 1 were diluted with 1×HBS-EP (GE Healthcare, Cat. BR-1006-69), and alpha-synuclein monomer (1 mg/ml) and fibril protein (3 mg/ml) were serially diluted in duplicate and analyzed at 6 concentrations (0, 0.39, 1.56, 6.25, 25, 100 nM) including 0 nM in total. For the capture, the monomer was for RU of 800 (theoretical), and a fibril was for RU of 100 (theoretical). The capture phase was performed at contact time of 60 seconds, a flow rate of 30 μl/min, and a stabilization period of 180 seconds. The association phase was performed at the association time of 120 seconds and the flow rate was 30 μl/min. The dissociation phase was performed at the dissociation time of 360 seconds and the flow rate of 30 μl/min. The regeneration phase was performed twice time at the regeneration time of 240 seconds (primary) and 60 seconds (secondary) and a flow rate of 30 μl/min. […]

[1] = molecular target: alpha-synuclein aggregate (fibril) (Homo sapiens, UniProt P37840 1-140); assay: SPR (BIAcore), Protein A capture, file ProteinA-Fibril-main-5th, sample aSyn180330, 1:1 binding fit, 25 °C
Method: as §1, with “μl/min.” for “μl/min. The regeneration phase was performed twice time at the regeneration time of 240 seconds (primary) and 60 seconds (secondary) and a flow rate of 30 μl/min.”
The BIAcore analysis was performed to quantitatively analyze the binding affinity of the chimeric antibodies (Ch11F11) obtained in Example 8, and the humanized antibodies (Hu11F11) obtained in Example 9, according to the substantially same method of Example 2-3. […]

| Binder | koff (alpha-synuclein monomer) [s⁻¹] | kon (alpha-synuclein monomer) [M⁻¹ s⁻¹] | koff [1] [s⁻¹] |
| --- | --- | --- | --- |
| Ch11F11 chimeric antibody (antibody, human IgG1, V domains shown, Chimeric human IgG1; also called chimeric 11F11; Ch11F11(-RD)) VH: EVQLQESGGGLVQPGGSLRLSCATSGFTFSDFYMEWVRQPPGKRLEWIAASRNKANDYTTEYSASVKGRFIVSRDTSQSILYLQMNALRAEDTAIYYCARDAHGKPFAYWGQGTLVTVSA VL: not shown | 2.65e-06 | 2.07e+06 |  |
| hu11F11(ver.3) (antibody, IgG1, V domains shown, Humanized IgG1; also called Hu11F1_ver3; Hu11F11_v3) VH: EVQLVESGGGLVQPGGSLRLSCATSGFTFSDFYMEWVRQPPGKRLEWIAASRNKANDYTTEYSASVKGRFTISRDTSKSSLYLQMNSLRAEDTAIYYCARDAHGKPFAYWGQGTTVTVSS VL: not shown |  |  | 0.000266 |
